Measurements published in patent publication US20240270846A1 (published 2024).
Substitutions are numbered along the chain they refer to. Names and notes keep the numbering of the source.

B1: CE115HA000 H35A one-arm antibody (antibody, human IgG1, kappa, L234A L235A, N297A, name in Kabat numbering)
heavy: QVQLVESGGGVVQPGRSLRLSCAASGFTFSNAWMAWVRQAPGKGLEWVAQIKAKSNNYATYYAESVKGRFTISRDDSKNSLYLQMNSLKTEDTAVYYCRYVHYGAYYGVDAWGQGTTVTVSSASTKGPSVFPLAPSSKSTSGGTAALGCLVKDYFPEPVTVSWNSGALTSGVHTFPAVLQSSGLYSLSSVVTVPSSSLGTQTYICNVNHKPSNTKVDKKVEPKSCDKTHTCPPCPAPEAAGGPSVFLFPPKPKDTLMISRTPEVTCVVVDVSHEDPEVKFNWYVDGVEVHNAKTKPREEQYASTYRVVSVLTVLHQDWLNGKEYKCKVSNKALPAPIEKTISKAKGQPREPQVYTLPPSRCELTKNQVSLSCAVKGFYPSDIAVEWESNGQPENNYKTTPPVLDSDGSFFLVSKLTVDKSRWQQGNVFSCSVMHEALHNHYTQKSLSLSPDYKDDDDK
chain: EPKSSDKTHTCPPCPAPELLGGPSVFLFPPKPKDTLMISRTPEVTCVVVDVSHEDPEVKFNWYVDGVEVHNAKTKPREEQYNSTYRVVSVLTVLHQDWLNGKEYKCKVSNKALPAPIEKTISKAKGQPREPQVCTLPPSRDELTKNQVSLWCLVKGFYPSDIAVEWESNGQPENNYKTTPPVLDSDGSFFLYSKLTVDKSRWQQGNVFSCSVMHEALHNRYTQKSLSLSP
light: DIVMTQSPLSLPVTPGEPASISCRSSQSLVHSNRNTYLHWYQQKPGQAPRLLIYKVSNRFSGVPDRFSGSGSGTDFTLKISRVEAEDVGVYYCGQGTQVPYTFGQGTKLEIKRTVAAPSVFIFPPSDEQLKSGTASVVCLLNNFYPREAKVQWKVDNALQSGNSQESVTEQDSKDSTYSLSSTLTLSKADYEKHKVYACEVTHQGLSSPVTKSFNRGEC
notes: one-arm antibody
B2: CE115HA000 A52aV one-arm antibody (antibody, human IgG1, kappa, L234A L235A, N297A, name in Kabat numbering)
heavy: B1 heavy with A35H, A53V
chain: B1 chain
light: B1 light
notes: one-arm antibody
B3: CE115HA000 A52aE one-arm antibody (antibody, human IgG1, kappa, L234A L235A, N297A, name in Kabat numbering)
heavy: B1 heavy with A35H, A53E
chain: B1 chain
light: B1 light
notes: one-arm antibody
B4: CE115HA000 A52aG one-arm antibody (antibody, human IgG1, kappa, L234A L235A, N297A, name in Kabat numbering)
heavy: B1 heavy with A35H, A53G
chain: B1 chain
light: B1 light
notes: one-arm antibody
B5: CE115HA000 A52aY one-arm antibody (antibody, human IgG1, kappa, L234A L235A, N297A, name in Kabat numbering)
heavy: B1 heavy with A35H, A53Y
chain: B1 chain
light: B1 light
notes: one-arm antibody
B6: CE115HA000 A32Y one-arm antibody (antibody, human IgG1, kappa, L234A L235A, N297A, name in Kabat numbering)
heavy: B1 heavy with A32Y, A35H
chain: B1 chain
light: B1 light
notes: one-arm antibody
B7: CE115HA000 A52aD one-arm antibody (antibody, human IgG1, kappa, L234A L235A, N297A, name in Kabat numbering)
heavy: B1 heavy with A35H, A53D
chain: B1 chain
light: B1 light
notes: one-arm antibody
B8: CE115HA000 A52aP one-arm antibody (antibody, human IgG1, kappa, L234A L235A, N297A, name in Kabat numbering)
heavy: B1 heavy with A35H, A53P
chain: B1 chain
light: B1 light
notes: one-arm antibody
B9: CE115HA000 A52aS one-arm antibody (antibody, human IgG1, kappa, L234A L235A, N297A, name in Kabat numbering)
heavy: B1 heavy with A35H, A53S
chain: B1 chain
light: B1 light
notes: one-arm antibody
B10: GLS3000 S27eW (Kabat) L chain altered form, one-arm antibody with CE115HA000 (antibody, human IgG1, kappa, L234A L235A, N297A, name in Kabat numbering)
heavy: B1 heavy with A35H
chain: B1 chain
light: B1 light with S32W
notes: one-arm antibody
B11: GLS3000 S27eI (Kabat) L chain altered form, one-arm antibody with CE115HA000 (antibody, human IgG1, kappa, L234A L235A, N297A, name in Kabat numbering)
heavy: B1 heavy with A35H
chain: B1 chain
light: B1 light with S32I
notes: one-arm antibody
B12: GLS3000 S27eQ (Kabat) L chain altered form, one-arm antibody with CE115HA000 (antibody, human IgG1, kappa, L234A L235A, N297A, name in Kabat numbering)
heavy: B1 heavy with A35H
chain: B1 chain
light: B1 light with S32Q
notes: one-arm antibody
B13: GLS3000 S52A (Kabat) L chain altered form, one-arm antibody with CE115HA000 (antibody, human IgG1, kappa, L234A L235A, N297A, name in Kabat numbering)
heavy: B1 heavy with A35H
chain: B1 chain
light: B1 light with S57A
notes: one-arm antibody
B14: GLS3000 S56A (Kabat) L chain altered form, one-arm antibody with CE115HA000 (antibody, human IgG1, kappa, L234A L235A, N297A, name in Kabat numbering)
heavy: B1 heavy with A35H
chain: B1 chain
light: B1 light with S61A
notes: one-arm antibody
B15: GLS3000 Y32A (Kabat) L chain altered form, one-arm antibody with CE115HA000 (antibody, human IgG1, kappa, L234A L235A, N297A, name in Kabat numbering)
heavy: B1 heavy with A35H
chain: B1 chain
light: B1 light with Y37A
notes: one-arm antibody
B16: GLS3000 S27eV (Kabat) L chain altered form, one-arm antibody with CE115HA000 (antibody, human IgG1, kappa, L234A L235A, N297A, name in Kabat numbering)
heavy: B1 heavy with A35H
chain: B1 chain
light: B1 light with S32V
notes: one-arm antibody
B17: GLS3000 S27eH (Kabat) L chain altered form, one-arm antibody with CE115HA000 (antibody, human IgG1, kappa, L234A L235A, N297A, name in Kabat numbering)
heavy: B1 heavy with A35H
chain: B1 chain
light: B1 light with S32H
notes: one-arm antibody
B18: GLS3000 S27eR (Kabat) L chain altered form, one-arm antibody with CE115HA000 (antibody, human IgG1, kappa, L234A L235A, N297A, name in Kabat numbering)
heavy: B1 heavy with A35H
chain: B1 chain
light: B1 light with S32R
notes: one-arm antibody
B19: GLS3000 S27eP (Kabat) L chain altered form, one-arm antibody with CE115HA000 (antibody, human IgG1, kappa, L234A L235A, N297A, name in Kabat numbering)
heavy: B1 heavy with A35H
chain: B1 chain
light: B1 light with S32P
notes: one-arm antibody
B20: GLS3000 S27eL (Kabat) L chain altered form, one-arm antibody with CE115HA000 (antibody, human IgG1, kappa, L234A L235A, N297A, name in Kabat numbering)
heavy: B1 heavy with A35H
chain: B1 chain
light: B1 light with S32L
notes: one-arm antibody
B21: GLS3000 S27eK (Kabat) L chain altered form, one-arm antibody with CE115HA000 (antibody, human IgG1, kappa, L234A L235A, N297A, name in Kabat numbering)
heavy: B1 heavy with A35H
chain: B1 chain
light: B1 light with S32K
notes: one-arm antibody
B22: GLS3000 S27eT (Kabat) L chain altered form, one-arm antibody with CE115HA000 (antibody, human IgG1, kappa, L234A L235A, N297A, name in Kabat numbering)
heavy: B1 heavy with A35H
chain: B1 chain
light: B1 light with S32T
notes: one-arm antibody
B23: GLS3000 V27cP (Kabat) L chain altered form, one-arm antibody with CE115HA000 (antibody, human IgG1, kappa, L234A L235A, N297A, name in Kabat numbering)
heavy: B1 heavy with A35H
chain: B1 chain
light: B1 light with V30P
notes: one-arm antibody
B24: GLS3000 V27cL (Kabat) L chain altered form, one-arm antibody with CE115HA000 (antibody, human IgG1, kappa, L234A L235A, N297A, name in Kabat numbering)
heavy: B1 heavy with A35H
chain: B1 chain
light: B1 light with V30L
notes: one-arm antibody
B25: GLS3000 V27cY (Kabat) L chain altered form, one-arm antibody with CE115HA000 (antibody, human IgG1, kappa, L234A L235A, N297A, name in Kabat numbering)
heavy: B1 heavy with A35H
chain: B1 chain
light: B1 light with V30Y
notes: one-arm antibody
B26: GLS3000 S27eN (Kabat) L chain altered form, one-arm antibody with CE115HA000 (antibody, human IgG1, kappa, L234A L235A, N297A, name in Kabat numbering)
heavy: B1 heavy with A35H
chain: B1 chain
light: B1 light with S32N
notes: one-arm antibody
B27: GLS3000 V27cI (Kabat) L chain altered form, one-arm antibody with CE115HA000 (antibody, human IgG1, kappa, L234A L235A, N297A, name in Kabat numbering)
heavy: B1 heavy with A35H
chain: B1 chain
light: B1 light with V30I
notes: one-arm antibody
B28: GLS3000 V27cD (Kabat) L chain altered form, one-arm antibody with CE115HA000 (antibody, human IgG1, kappa, L234A L235A, N297A, name in Kabat numbering)
heavy: B1 heavy with A35H
chain: B1 chain
light: B1 light with V30D
notes: one-arm antibody
B29: GLS3000 S27eM (Kabat) L chain altered form, one-arm antibody with CE115HA000 (antibody, human IgG1, kappa, L234A L235A, N297A, name in Kabat numbering)
heavy: B1 heavy with A35H
chain: B1 chain
light: B1 light with S32M
notes: one-arm antibody
B30: GLS3000 S27eY (Kabat) L chain altered form, one-arm antibody with CE115HA000 (antibody, human IgG1, kappa, L234A L235A, N297A, name in Kabat numbering)
heavy: B1 heavy with A35H
chain: B1 chain
light: B1 light with S32Y
notes: one-arm antibody
B31: GLS3000 V27cE (Kabat) L chain altered form, one-arm antibody with CE115HA000 (antibody, human IgG1, kappa, L234A L235A, N297A, name in Kabat numbering)
heavy: B1 heavy with A35H
chain: B1 chain
light: B1 light with V30E
notes: one-arm antibody
B32: GLS3000 V27cS (Kabat) L chain altered form, one-arm antibody with CE115HA000 (antibody, human IgG1, kappa, L234A L235A, N297A, name in Kabat numbering)
heavy: B1 heavy with A35H
chain: B1 chain
light: B1 light with V30S
notes: one-arm antibody

Each binder was assayed against T1, CD3 epsilon homodimer protein (UniProt P07766 23-126) (assay: SPR Biacore T200, antibody over immobilised CD3e homodimer;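 note: CD3 epsilon homodimer amine-coupled on a CM4 chip, run at 25 °C in HBS-EP+, Z = bound amount of each single-residue H chain variant over that of the parent antibody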).
T1 construct: also called CD3 (CD3 epsilon)
T1 sequence (P07766 23-126): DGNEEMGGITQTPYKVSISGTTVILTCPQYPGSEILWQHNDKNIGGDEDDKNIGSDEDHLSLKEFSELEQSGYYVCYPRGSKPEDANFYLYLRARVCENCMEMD

For B1, which “ratio of amounts bound (Z=Y/X vs CE115HA000)” value (shortened to “ratio of amounts bound”) is on record?
The value was 0.17.

How did the “ratio of amounts bound” value turn out when B2 was run?
Its value is 0.52.

How did the “ratio of amounts bound” value turn out when B3 was run?
Its value is 0.57.

For B4, which “ratio of amounts bound” value is on record?
The value was 0.81.

Which “ratio of amounts bound” value does the source give for B5 here?
Its value is 0.31.

B6 was tested. Which “ratio of amounts bound” value did it give?
The value was 0.33.

For B7, which “ratio of amounts bound” value is on record?
The value was 1.34.

For B8, which “ratio of amounts bound” value is on record?
Its value is 0.15.

For B9, which “ratio of amounts bound” value is on record?
The value was 1.05.

These binders were tested against T2, CD3 epsilon homodimer protein (UniProt P07766 23-126) (assay: SPR Biacore T200, CD3 epsilon homodimer immobilized; vs unaltered GLS3000;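 note: antibody variants flowed as analyte over CD3 epsilon homodimer amine-coupled to a CM4 chip, at 25 °C in HBS-EP+ running buffer, fitted with Biacore T200 Evaluation Software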).
T2 construct: construct not described; homodimer as printed; also called CD3 (CD3 epsilon)
T2 sequence (P07766 23-126): as above

How did the “KD ratio to GLS3000 (Affinity up)” value turn out when B10 was run?
Its value is 1.32.

With B11 as the binder, how does the “KD ratio to GLS3000 (Affinity up)” value read?
The value was 1.05.

For B12, which “KD ratio to GLS3000 (Affinity up)” value is on record?
Its value is 1.08.

How did the “KD ratio to GLS3000 (Affinity up)” value turn out when B13 was run?
The value was 0.9.

Which “KD ratio to GLS3000 (Affinity up)” value does the source give for B14 here?
The value was 1.18.

How did the “KD ratio to GLS3000 (Affinity up)” value turn out when B15 was run?
The value was 66.8.

How did the “KD ratio to GLS3000 (Affinity up)” value turn out when B16 was run?
The value was 0.95.

Which “KD ratio to GLS3000 (Affinity up)” value does the source give for B17 here?
Its value is 1.09.

Which “KD ratio to GLS3000 (Affinity up)” value does the source give for B18 here?
The value was 1.35.

With B19 as the binder, how does the “KD ratio to GLS3000 (Affinity up)” value read?
Its value is 1.06.

How did the “KD ratio to GLS3000 (Affinity up)” value turn out when B20 was run?
The value was 1.06.

B21 was tested. Which “KD ratio to GLS3000 (Affinity up)” value did it give?
Its value is 1.32.

B22 was tested. Which “KD ratio to GLS3000 (Affinity up)” value did it give?
Its value is 0.98.

For B23, which “KD ratio to GLS3000 (Affinity up)” value is on record?
Its value is 3.71.

How did the “KD ratio to GLS3000 (Affinity up)” value turn out when B24 was run?
Its value is 0.81.

Which “KD ratio to GLS3000 (Affinity up)” value does the source give for B25 here?
The value was 1.25.

With B26 as the binder, how does the “KD ratio to GLS3000 (Affinity up)” value read?
The value was 1.01.

How did the “KD ratio to GLS3000 (Affinity up)” value turn out when B27 was run?
The value was 1.03.

How did the “KD ratio to GLS3000 (Affinity up)” value turn out when B28 was run?
The value was 3.21.

Which “KD ratio to GLS3000 (Affinity up)” value does the source give for B29 here?
The value was 1.11.

How did the “KD ratio to GLS3000 (Affinity up)” value turn out when B30 was run?
The value was 1.1.

B31 was tested. Which “KD ratio to GLS3000 (Affinity up)” value did it give?
Its value is 1.1.

How did the “KD ratio to GLS3000 (Affinity up)” value turn out when B32 was run?
The value was 3.04.
